According to PMC4357141:

Biological target: GST-sPol_PR_(D25N) (Glutathione S-Transferase tagged HIV-1 Pol polyprotein with a catalytically dead protease) (HIV-1)
Assay: AlphaScreen or HTRF; titration: GST-sPol_PR_(D25N) constant at 20 nM, WT or D366N Flag-LEDGF/p75 titrated from 50 nM downward (1:2.5 series); glutathione donor and anti-Flag acceptor beads; 25 mM Tris/HCl pH 7.5, 150 mM NaCl, 1 mM DTT, 1 mM MgCl2, 0.1% BSA, 0.1% Tween 20; 1 h at 4°C, then 1 h at 23°C with beads; apparent

## Flag-LEDGF/p75 WT (lens epithelium-derived growth factor p75) (from UniProt O75475 1-530) (natural protein)
  Kd: 3.1 nM
